Protein production data for 20 sequences are collected here from a protein production outcome set (Wang et al. 2014).

A short description of this series: label from the status in PepcDB records.
On to “MLNYRQLHYFWVVAKTGSIVRACEQLNLTAQTVSGQISLLEAALGVDLFQRVGRRLEMTEAGRLALPYAEQMFQLGDELESLLRSQPDEQQLLLRIGVADVVPKSIVYRLIAPTMELAEPIRITCREDKLERLLADLAIQRLDLVISDSPMPPHLDIKGYSQKLGECGVTFFATREVAERVGSDFPQCLHGAPLLIPGQETVVRGRLMRWFAEQKIQPRIIGEFDDSALMKAFGKSGSGIFVAPSVIVDEVQGQYGVQVIGQTDAVTESFYAITVERKVRHPGVVAIAESARNQLFTDAG”, for which the protein production entry is “failed”.
For “MARIHQLDEHLSNMIAAGEVVERPSGIVKELVENSIDAKAKHIEIQILQGGIDCITIIDDGCGMDAQDATLAFERHATSKIQAVDDLWKISTMGFRGEALPSIASVSQVTLRTNDGIDSSEVIIYYGTLKSARPCGTPKGTMLEVRNLFQKTPARFKHLKSPQYEFSLISDVVQKFAISHPNIGFELSHDGRSVFKTKGNGNLREVLMQIYGRDGAKTAIELHGQDLDYTIRGYALQPQFQRATKYYVLLYINGRMIRNYHLQKAVMDAYAPYMPKDRYPIAVINMEMDAQLVDVNVHPSKWEIRLSKEKQLEKLLYQTIKAALMQDMEVPNIQARKENKKEKIEIQELQFTYPRDQEVKKLHTEVNDSFVHYNGKPKQTITEESKVQVDKVEPQEAPVEAEKQESVDKKQELSESQSSDTQAPIKDQVIEEVSTTKQAETLFKDIVPIQEVVMKAEQEPASESINPSLPQLHVIGQFHNSYILAEGEKGLYIIDQHAAQERYHYEMIQKQILSGVKDTQPLLIPITVETTISAVSRIDDLNALLEQVGIHFEVFGNTTLLCRELPIWLKDTKEEAFLQDMIDLWQKDDEISLDKLRKHTIATMACHSSIRFHRSLTMEEMKQVILDLGKCEQPFHCPHGRPTLICYEDKDLIHDFERG” the value was “failed”.
For “MTAYWIAHVTIHDMQQYQEYMKLAPAAFQKYGAKFLARGGESVCVEGQAYQRHVIIEFPDLATAQQCYDSEEYKQARLAREGCADVMISFVEG” the value was “failed”.
The same measure for “ETSDQRKAEEHIEKEAKYLASLLDAGNLNNQANEKIIKDAGGALDVSASVIDTDGKVLYGSNGRSADSQKVQALVSGHEGILSTTDNKLYYGLSLRSEGEKTGYVLLSASEKSDGLKGE”: “not failed”; for “MQGISASPERMNAQQRAAHVRQVVLARGDELRRRFPLLRHQDALGAGILAFALSGMLGSALLYVTGHLAWWACLLLNAFFASLTHELEHDLIHSMYFRKQRLPHNLMLGLVWLARPSTINPWVRRHLHLNHHKVSGSESDIEERAITNGEPWGIARLLMVGDNMMAAFIRLLRAPGARRKLGILVRTLAVYAPLALLHWGAWYVFLGFHGANGVAALLGSPIQWSQDTASLMHYVDIAVVVIIGPNVLRTFCLHFVSSNMHYYGDIEPGNVIQQTQVLNPWWMWPLQAFCCNFGSTHGIHHFVVREPFYIRQMTASVAHKVMAEMGVRFNDFGTFARANRFTRQEREAMQPAHNARA”: “failed”; for “MEFTTQHFIALAPMLITTITTVVVMLAIAWKRNHSQTFLLSTVGLNLALLSLLPALKVAPLAVTSLITIDKFACLYMAIILVATLACVTLAHAYLGEGAKGFPGNREELYLLLLMSALGGLVLVSANHLAGLFIGLELLSVPVYGLVAYAFFNKRSLEAGIKYMVLSAAGSAFLLFGMALLYADAGSLSFDQIGKALATTSMPSLVAQLGLGMMLVGLAFKLSLVPFHLWTPDVYEGAPAPVAAFLATASKVAVFAVVVRLFMLSPAASSGVLSTVLAVIAVASILIGNLLALTQSNLKRLLGYSSIAHFGYLVIALVASKGLALEAMGVYLVTYVITSLGAFGVITLMSSPYGGRDADALYEYRGLFWRRPYLTAVLTVMMLSLAGIPLTAGFIGKFYIIATGVESHLWWLVGALVIGSAIGVYYYLRVMVTLYLVEPNLRRHDAPLKWEQRTGGVMLLAIAILAFVLGVYPQPLLEMVQQAGLQLIG”: “failed”.
For the sequence “MKVWPVKHSPLLRQPERFIARSELQALIRNVTQNLVNIKDESGQFLLRLDDGRVIDTKGWAGWEWTHGVGLYGIYQYYQQTGDIEMRDIIDRWFADRFAEGATTKNVNTMAPFLTLAYRFEETGRMAYLPWLESWAEWAMHEMPRTEQGGMQHMTLAEENHQQMWDDTLMMTVLPLAKIGKLLNRPQYVEEATYQFLLHVQNLMDRETGLWFHGWNYEGRHNFARARWARGNSWLTMVIPDFLELVDLPEGNAVRRYLITVLDAQIAALAECQDDSGLWHTLLDDPHSYLEASATAGFAYGILKAVRKRYVGQHYAGVAEKAIRGIVQNISPQGELLQTSFGTGMGSDLDFYRQIPLTSMPYGQAMAILCLTEYLRKYF”, the protein production result is “not failed”.
As for “MALEIKILDYGDIELESSFLVLGRDCGRTRRVLTLGFLILGGKYPVVVDTGYRSNQIMETLGMRGLQYHEHMIENQLARHGVRMGDVRFVCHTHLHIDHAGKDDLFPMNTTVVLNRKELEYSVSGLMHPQYPAPDIKHLIDRLHTKSALRFLDLEITGPIELMPGVYCDAANAHTEGSMNIIVETADGIATICGDVIYDFNDQIVTPFNEIHDWEPRTTGNHGTSKRAEKASIKKLLSNSRYLLPVHDRPAKIEGGMVVGRLHDQVPGPIVQSLPPRNWFPA”, the protein production entry was “failed”.
The same measure for “MLPSESTLLTNATILTGTGERINNGDILLVNGKVTQVGNNLSVEQATVIDMKGKWITPGIIDVHSHLGVYPNPEVLEHHHHHH”: “not failed”; for “MLFSIQTCPCQINPALNAVSTPLLYQDCCQPYHDGLYNQEVEDSDAIRADTAEHLMRTRYSAFVLVKPEYIVKTTLPAQQDLLDIKAIENWAKETDWAGLEVVAHTPKLSKRHAQVEFKAYFKTPDGLQAHHELSTFVKIKNKANSDASWYFLDPTVSMSVTQKQPCICGSGEKFKRCCGMYI”: “not failed”.
In the case of “MPKAAWEPEYHRVFVDLCVEQKMLGNQPGTQHILKPFLQRTGARFTRNQLKNHWDTMIKQWKIWCRLVQCSDMQWDPQTNTFGANDQDWANYLHVNPEAGQYRLNPPSFLEKLELIFEDSNLDDEGTSGSKRKRIAKHRDEDNDNTGDEEDTQSASNFSSPQSKGYWSPSSHELFVDLLFQEALKGNRPDSHYPKETWKMILETINQNTGKSFTRPQLKNHWDCTRKSWKIWCQVIGAPVMKWDATSRTFGATDEDWKNYLKENHRAAPFRRKQLPHADKLATIFKGLIEPGKAYFRSYRRRVLDHHSESPQLHDPTPLSTLYTNEPVSGSEGGADEDDNDDDDEQPTPQHRRFNSVGFAESRLQDVEIVTPGCHRLKTELMKESPVSASVRQYEYTIGECIECLDSMEEVEQGSDLYLFALDLFVKKEYREIFLLLKNSSLRMSWLLRLRSGGLTIAA”, the protein production result is recorded as “failed”.
For “MCHSGTFHLTAGESVEWVLTWAPSFEPHPPMPDYTRSLESTLSFWASWVEELPHQRLYDAEVRRSMLVLRALTDLQTGGIVAAPTTSLPEDFGGIRNWDYRYVWLRDSALTIEALVEYGFSQAALQWRTWLLRAIAGDPENLRIMYGLGGERHLPERELQHLRGYENSVPVRVGNGAAEQYQADVVGEVMVALETIRRAGCLEDEFSWGMQKAILDFQEANFDRKDQGIWEMRSEPQYFTHGRAMMWAGFDRGIKAIEEFNLDGPIERWRELRAKLREEIMTNGFNEEIQSFTQCYDNTQVDASLLQLAQIGFIGFDDPKMLSTVARIEQELLDAHGFLHRYHTDGSDGLAGDEYPFLICSFWLVEQYASSNRLDEAKEKMNRILAVQSPLGLLAEEYSTHHGRLAGNYPQAFSHIGLISAARAINFEEARNRLEHHHHHH”, the protein production entry was “failed”.
As for “MLSIKANHFMPIVRLKENEPFEAALRRFKRTIEKTGLLTELRSREFYEKPTAERKRKHAAAVKRHYKRIRSQQLPPRLYLEHHHHHH”, the protein production entry is listed as “failed”.
Turning to “MPGQSRFPLPLIAAFFALYVIWGSTYLVIRIGVEYWPPLMLGGIRFIIAGSLMYAFLRWRGVPAPTWAQWKAAGIIGVLLLSCGNGAVTLAEHSGVTSGVAALAVATVPLFTLLCGYFWGARNTRLEWAGIVLGMIGIGMLNLGSNLQSSPMGAALLLFAAAAWAFGSVWSKHLPLPQGAMASAAEMLVGGVVLMIGSALSGEHLDTLPPMEGWLALAYLAGFGSIIAFNAYMYLLKHVRPAAATSYAYVNPAVAVLLGIVFVGETIGIEEAMAMLVIISAVVLIGLPQWRKPKAAAQEEAA”, the protein production result was “failed”.
For “MESLSIIFRWFVGLRSVGSSLGRKPDQTEETTLTTKLDIAPANDRELVVARIIDAPRENVYRCWTDTRLLTQWFSPKPWTTPRAEMDMRTGGSSLVIMADPDGNEFPNPGVFLEVIPGKKIIFTDAYTQAWEPSEKPFMTGVLTFEDEGEGRTRYIARVRHWSVADRERHEAMGFHVGWGQCTDQLEDLARTL”, the protein production entry was “failed”.
Consider “MLRIFQGRPAVTIAAVLVAASVAGCAGKAKKPTLVYEERPVELLYSTGADRLDRGNWNEAVDYFREVERQHPYSEWSRRSILMTGYAHYMGNQYAEAIGDADRFISLYPGNPSAQYAFYLKAICYFEQIVDVNRDQAATEQALAALRDVVQRYPNTEYATDARLKIDMVNDQLAGKEMAIGRWYLKNGQTLAAIGRFKAVIERHQTTSHTPEALFRLVEAYLTIGLNEEAKRNGAVLGYNFPGDRWYVDAYRLLNDNGLRPAVEPLKAGAKRNALERILSKDKEATLAPPGERKAKKGLLGPLGM”, for which the protein production entry was “failed”.
For “MTFRYRGPSPKGDQPKAIAGLVEALRDGERFVTLLGATGTGKTVTMAKVIEALGRPALVLAPNKILAAQLAAEFRELFPENAVEYFISYYDYYQPEAYVPGKDLYIEKDASINPEIERLRHSTTRSLLTRRDVIVVASVSAIYGLGDPREYRARNLVVERGKPYPREVLLERLLELGYQRNDIDLSPGRFRAKGEVLEIFPAYETEPIRVELFGDEVERISQVHPVTGERLRELPGFVLFPATHYLSPEGLEEILKEIEKELWERVRYFEERGEVLYAQRLKERTLYDLEMLRVMGTCPGVENYARYFTGKAPGEPPYTLLDYFPEDFLVFLDESHVTVPQLQGMYRGDYARKKTLVDYGFRLPSALDNRPLRFEEFLERVSQVVFVSATPGPFELAHSGRVVEQIIRPTGLLDPLVRVKPTENQILDLMEGIRERAARGERTLVTVLTVRMAEELTSFLVEHGIRARYLHHELDAFERQALIRDLRLGHYDCLVGINLLREGLDIPEVSLVAILDADKEGFLRSERSLIQTIGRAARNARGEVWLYADRVSEAMQRAIEETNRRRALQEAYNLEHGITPETVRKEVRAVIRPEGYEEAPLEADLSGEDLRERIAELELAMWQAAEALDFERAARLRDEIRALEARLQGVRAPEPVPGGRKRKRR” the value was “not failed”; for “MTKVIVVNGPNLGRLGVRQPDVYGRQDLDTLRKLCAEWGKDLGLEVEVRQTDDEAEMVRWMHQAADEKTPVVMNPAAFTHYSYALADAAHMVIDENLPLMEVHISNPSARDEFRKRSVISPVATGTITGMGFYGYKLALDAVAHLLSE”, “not failed”; for “MTLKLKDKNTMLNSEKMVASIEKQDLHHADKYLKKALNEDPAEVLVELAEYLESIGFLPQAQEIYEKVRFDFPEVNVNLAQIAAEDGNIEEAFLYLDAIPEESEDYLSALIVKADLYQMEGLTDVARDKLLEASQLSDDSLIIFGLAEMEFELGNFEQAIQYYAKLDNRDLLATTGVSTYERIGKSYASLGKFEAAREFLEKAIEIEYNDTIAFELATLLYDQEEYQKANFYFKQIETMSSDFEGYEYNYALSLHAEHRTEEALRMTQQGISKNAFDVQLLLLASQLSYELHDTQSAESYLKQALPLAEDNDEIVLRLSALYLEEERFDDLVALADYEVDSVLARWNIARAYQALDDEEEAFQIYQDLSKDLADNPEFLQDYAYILREFGYRDQARVTAEKYLALVPDDVNMQTFLEDY”, “failed”.
In the case of “MPNFSKNEEVLFSAVNEIFEEKIPFNKIIGLKVRFISPEQVKLSFEMRDELIGNAIRRMLYGGVISSAIDMTAGLAAFMGFQEKMSGKPMEEKLAMIGRLSTMSLHVEYLRPGLGREFVCTGYNVRTGNKVAVIRTELMNDQDELIAVGSVSYILV”, the protein production entry is given as “not failed”.
